For the experiment, the target named is T1, HIS-PLK1 (UniProt P53350 1-603).
T1 construct: Polo-like kinase 1 (PLK1), HIS tagged, expressed in bacteria via pET28a; also called HIS tagged PLK1; source: bacterially produced (pET28a system)
In words: pull-down; GST-CHK1 (insect cells) as bait, HIS-PLK1 (bacterial) as prey; 1 μg of each in NETN buffer (20 mM Tris–HCl pH 8.0, 0.15 M NaCl, 1 mM EDTA, 0.5% NP-40), 4°C overnight; glutathione-sepharose beads; immunoblotting. To be noted: both partners purified. (Immunoblotting shows a protein as a band on a membrane.)

T1 sequence (P53350 whole entry): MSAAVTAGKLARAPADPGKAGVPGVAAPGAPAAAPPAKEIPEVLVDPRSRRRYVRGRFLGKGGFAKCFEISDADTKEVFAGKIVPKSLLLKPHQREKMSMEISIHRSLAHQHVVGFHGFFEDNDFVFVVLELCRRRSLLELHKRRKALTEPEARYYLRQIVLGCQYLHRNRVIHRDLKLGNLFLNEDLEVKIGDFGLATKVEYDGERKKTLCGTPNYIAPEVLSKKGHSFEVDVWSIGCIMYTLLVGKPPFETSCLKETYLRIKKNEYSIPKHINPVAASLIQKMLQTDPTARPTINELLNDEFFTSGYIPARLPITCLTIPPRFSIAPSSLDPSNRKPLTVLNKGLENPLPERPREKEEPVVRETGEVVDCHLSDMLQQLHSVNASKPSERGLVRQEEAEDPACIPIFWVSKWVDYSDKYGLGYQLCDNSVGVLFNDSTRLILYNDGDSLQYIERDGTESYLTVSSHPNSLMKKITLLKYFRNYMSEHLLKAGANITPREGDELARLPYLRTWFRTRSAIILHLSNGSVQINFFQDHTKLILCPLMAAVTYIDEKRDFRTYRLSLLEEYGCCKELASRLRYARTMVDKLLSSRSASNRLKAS

B1: Recombinant human active protein GST-CHK1 (enzyme, UniProt O14757 1-476, looked up)
chain: MAVPFVEDWDLVQTLGEGAYGEVQLAVNRVTEEAVAVKIVDMKRAVDCPENIKKEICINKMLNHENVVKFYGHRREGNIQYLFLEYCSGGELFDRIEPDIGMPEPDAQRFFHQLMAGVVYLHGIGITHRDIKPENLLLDERDNLKISDFGLATVFRYNNRERLLNKMCGTLPYVAPELLKRREFHAEPVDVWSCGIVLTAMLAGELPWDQPSDSCQEYSDWKEKKTYLNPWKKIDSAPLALLHKILVENPSARITIPDIKKDRWYNKPLKKGAKRPRVTSGGVSESPSGFSKHIQSNLDFSPVNSASSEENVKYSSSQPEPRTGLSLWDTSPSYIDKLVQGISFSQPTCPDHMLLNSQLLGTPGSSQNPWQRLVKRMTRFFTKLDADKSYQCLKETCEKLGYQWKKSCMNQVTISTTDRRNNKLIFKVNLLEMDDKILVDFRLSKGDGLEFKRHFLKIKGKLIDIVSSQKIWLPAT
notes: Human checkpoint kinase CHK1, recombinant active protein; source: bought: R&D Systems (1630-KS-010), produced in insect cells
In the case of B1, the binding result was “binds”.

Source of the values: paper PMC8287952, “PARP1 and CHK1 coordinate PLK1 enzymatic activity during the DNA damage response to promote homologous recombination-mediated repair” (Nucleic Acids Research, 2021).
